Source: patent publication US6635802B1, “Nuclear transfer using cells cultured in serum starvation media containing apoptosis inhibitors” (The Texas A&M University System, priority 2000, dated 2003)

How the values were obtained:
Format in all cases: cell-based
porcine PGCs [1] = test: Porcine PGCs plated in chambered slides in the absence of feeder layers, with or without growth factors; AP-positive cells counted; details: for Number of PGCs surviving in culture, in words: absence of feeder layers, 24, 48, 72 hours
Protocol: FIG. 8. Freshly isolated PGCs were plated in chambered slides in the absence of feeder cells and incubated in media with no protease inhibitors or antioxidants (PES), with MAC (MAC) or with NAC (NAC), either with or without growth factors (G), for 24, 48 or 72 hours. Cells were fixed, stained for alkaline phosphatase (AP) as previously described, and counted (normalized to control; left vertical axis).
After culture, colonies were stained, counted and analyzed as described above. To determine the effects of MAC and NAC on porcine PGCs, cells were exposed to those inhibitors during the first half period of culture (4-5 days) or the last half period (4-5 days), respectively. In addition, to determine the effect of MAC and NAC in the absence of feeders, cells were plated on chambered slides previously coated with 0.1% gelatin and medium with or without inhibitors in the presence or absence of growth factors. Cells were fixed, stained for AP and counted at the interval of 24, 48, and 72 hours.
Freshly isolated PGCs were plated in chambered slides in the absence of feeders and incubated in media with or without growth factors (GF) and with or without MAC and NAC. Cells were fixed, stained for AP as previously described, and counted.

[2] = system: Bovine embryonic fibroblasts (BEF); test: Cell cycle distribution (propidium iodide flow cytometry) of serum starved bovine embryonic fibroblasts; details: for Proportion of cells going into G0, in words: addition during the starvation period; for G2/M (%) / S (%): serum starvation 5 days; for G2/M (%) / S (%) / G0/G1 (%): MAC 0.7 pM, NAC 1 mM, GSH 2 mM; for G0/G1 (%): serum starvation (0.5% FBS) 5 days
Protocol: (§1) Bovine embryonic fibroblasts (BEF) were isolated from the fetus with 3-5 cm crown-rump length. After two or three passages, cells were plated one million cells per plate (100 mm) with growth medium (DMEM) with 2 mM L-glutamine, 0.1 mM β-mercaptoethanol and 10% FBS. After 24 hours, cells were washed with PBS 3-5 times and then serum starvation medium with 0.5% FBS was added. In addition, cells were treated with serum starvation medium containing apoptosis inhibitors such as a2-macroglobulin (0.7 pM), N-acetylcysteine (1 mM) and glutathione (2 mM). Cells were treated with serum starvation with or without apoptosis inhibitors for 5 or 10 days. Then cells were trypsinized and counted.
(§2) Cells (1×10^6) were washed in 0.15 M NaCI, fixed in 70% ethanol, and stored at −20° C. overnight or until ready to be analyzed. For analysis, cells were centrifuged, rinsed with PBS, resuspended in 500 μl of a 0.05 mg/ml propidium iodide/0.1% Triton X-100/0.2 mg/ml RNase A solution, and incubated for a minimum of 30 minutes at room temperature in the dark. Cells were analyzed by flow cytometry to determine DNA content. Modfit LT™ (Verity Software House, Topsham, Me.) was used to model the cell cycle distribution within each sample.

[3] = system: Porcine embryonic fibroblast (PEF); test: Cell cycle distribution (propidium iodide flow cytometry) of serum starved porcine embryonic fibroblasts; details: for Proportion of cells going into G0, in words: addition during the starvation period; for G0/G1 (%) / G2/M (%) / S (%): serum starvation 5 days, MAC 0.7 pM, NAC 1 mM, GSH 2 mM
Excerpt: (§3) Porcine embryonic fibroblast (PEF) were isolated from day 25-28 fetuses according to the methods previously described (Hogan et al., 1994). Briefly, porcine fetuses of day 25-30 (day 0=estrus) were removed from the uterus and rinsed with PBS+penicillin/streptomycin solution (PBS/PS). Head, limbs and internal organs were removed, and the carcasses were minced with razor blades or ground using a syringe head until they were the consistency of sludge. Then these were trypsinized 2-3 times using 0.25% trypsin+EDTA for 20 minutes. The supernatant fraction was removed and centrifuged to collect the cells. The cells were plated using DMEM+10% fetal bovine serum (FBS) and cultured up to 80-90% confluency before further passage.
as §1, §2

[4] = system: Porcine embryonic fibroblast (PEF); test: TUNEL assay (flow cytometry) of serum starved porcine embryonic fibroblasts; details: serum starvation 5 days, MAC 0.7 pM, NAC 1 mM, GSH 2 mM, serum starved without inhibitor 26.50
Excerpt: as §3, §1
After counting, cells were fixed and stained according to protocols with the APO-BRDU kit (Phoenix Flow Systems, San Diego, Calif.). […] To determine base line fluorescence, control cells were incubated without TdT. […] Following counterstaining with a propidium iodide/RNase A solution for 30 minutes in the dark, which allows simultaneous analysis of cell cycle position and apoptosis, cells were analyzed on a FACSCalibur™ flow cytometer (Becton Dickinson, San Jose, Calif.). Fluorescence emissions were measured at 582±21 nm for propidium iodide and 530±15 nm for fluorescein, without spectral compensation, after excitation at 488 nm by an argon-ion laser. […]

porcine PGCs [5] = test: In vitro culture of porcine PGCs on STO feeder cells with apoptosis inhibitors; AP-stained colonies counted
[6] = Table 3 combined effects study: MAC 0.7 pM, NAC 1.0 mM, alone or together, normalized to control

With `CC(=O)N[C@@H](CS)C(=O)O` [NAC, N-acetylcysteine] the “Rescue of PGCs, in words” value (porcine PGCs [1]; absence of feeder layers and of growth factors, after 72 hr of culture) was “able to rescue the PGCs”, the “Number of PGCs surviving in culture, in words” value (porcine PGCs [1]) was “increased the number of PGCs surviving in culture” and the “Proportion of cells going into G0, in words” value (from here on “Proportion”) [2] was “did not affect the proportion of cells going into G0”. The “G2/M (%)” value [2] was 10%, the “S (%)” value [2] was 2% and the “G0/G1 (%)” value [2] was 88%. The “Proportion” value [3] was “did not affect the proportion of cells going into G0”, the “G0/G1 (%)” value [3] was 95% and the “G2/M (%)” value [3] was 3%. The “S (%)” value [3] was 2%, the “5-day Apoptosis (%)” value [4] was 0.06% and the “Normalized # of Colonies + SE” value (porcine PGCs [5]; [6]) was 2.73 ± 0.03.

B1: α2-macroglobulin (protein, UniProt P01023 24-1474, looked up)
Alpha-2-macroglobulin: SVSGKPQYMVLVPSLLHTETTEKGCVLLSYLNETVTVSASLESVRGNRSLFTDLEAENDVLHCVAFAVPKSSSNEEVMFLTVQVKGPTQEFKKRTTVMVKNEDSLVFVQTDKSIYKPGQTVKFRVVSMDENFHPLNELIPLVYIQDPKGNRIAQWQSFQLEGGLKQFSFPLSSEPFQGSYKVVVQKKSGGRTEHPFTVEEFVLPKFEVQVTVPKIITILEEEMNVSVCGLYTYGKPVPGHVTVSICRKYSDASDCHGEDSQAFCEKFSGQLNSHGCFYQQVKTKVFQLKRKEYEMKLHTEAQIQEEGTVVELTGRQSSEITRTITKLSFVKVDSHFRQGIPFFGQVRLVDGKGVPIPNKVIFIRGNEANYYSNATTDEHGLVQFSINTTNVMGTSLTVRVNYKDRSPCYGYQWVSEEHEEAHHTAYLVFSPSKSFVHLEPMSHELPCGHTQTVQAHYILNGGTLLGLKKLSFYYLIMAKGGIVRTGTHGLLVKQEDMKGHFSISIPVKSDIAPVARLLIYAVLPTGDVIGDSAKYDVENCLANKVDLSFSPSQSLPASHAHLRVTAAPQSVCALRAVDQSVLLMKPDAELSASSVYNLLPEKDLTGFPGPLNDQDNEDCINRHNVYINGITYTPVSSTNEKDMYSFLEDMGLKAFTNSKIRKPKMCPQLQQYEMHGPEGLRVGFYESDVMGRGHARLVHVEEPHTETVRKYFPETWIWDLVVVNSAGVAEVGVTVPDTITEWKAGAFCLSEDAGLGISSTASLRAFQPFFVELTMPYSVIRGEAFTLKATVLNYLPKCIRVSVQLEASPAFLAVPVEKEQAPHCICANGRQTVSWAVTPKSLGNVNFTVSAEALESQELCGTEVPSVPEHGRKDTVIKPLLVEPEGLEKETTFNSLLCPSGGEVSEELSLKLPPNVVEESARASVSVLGDILGSAMQNTQNLLQMPYGCGEQNMVLFAPNIYVLDYLNETQQLTPEIKSKAIGYLNTGYQRQLNYKHYDGSYSTFGERYGRNQGNTWLTAFVLKTFAQARAYIFIDEAHITQALIWLSQRQKDNGCFRSSGSLLNNAIKGGVEDEVTLSAYITIALLEIPLTVTHPVVRNALFCLESAWKTAQEGDHGSHVYTKALLAYAFALAGNQDKRKEVLKSLNEEAVKKDNSVHWERPQKPKAPVGHFYEPQAPSAEVEMTSYVLLAYLTAQPAPTSEDLTSATNIVKWITKQQNAQGGFSSTQDTVVALHALSKYGAATFTRTGKAAQVTIQSSGTFSSKFQVDNNNRLLLQQVSLPELPGEYSMKVTGEGCVYLQTSLKYNILPEKEEFPFALGVQTLPQTCDEPKAHTSFQISLSVSYTGSRSASNMAIVDVKMVSGFIPLKPTVKMLERSNHVSRTEVSSNHVLIYLDKVSNQTLSLFFTVLQDVPVRDLKPAIVKVYDYYETDEFAIAEYNAPCSKDLGNA
For B1, the “Number of PGCs surviving in culture, in words” value (porcine PGCs [1]) was “increased the number of PGCs surviving in culture”, the “Proportion” value [2] was “did not affect the proportion of cells going into G0” and the “G2/M (%)” value [2] was 10%. The “S (%)” value [2] was 5%, the “G0/G1 (%)” value [2] was 85% and the “Proportion” value [3] was “did not affect the proportion of cells going into G0”. The “G0/G1 (%)” value [3] was 95%, the “G2/M (%)” value [3] was 4% and the “S (%)” value [3] was 1%. The “5-day Apoptosis (%)” value [4] was 11.60%, the “Normalized # of Colonies + SE” value (porcine PGCs [5]; MAC (0.7 pM) 1-4 days (FH), Table 4 timing study) was 1.21 ± 0.05 and the “Normalized # of Colonies + SE” value (porcine PGCs [5]; MAC (0.7 pM) 5-8 days (LH), Table 4 timing study) was 1.23 ± 0.09. The “Normalized # of Colonies + SE” value (porcine PGCs [5]; [6]) was 2.00 ± 0.18 and the “Normalized # of Colonies + SE” value (porcine PGCs [5]; Table 6 protease inhibitors: MAC 0.7 pM, PA 50 μM, AEBSF 250 μM, TLCK 100 μM, normalized to control) was 1.72 ± 0.15.
